Experimental data: publication doi:10.1101/2020.05.04.076190

Molecular target: MycWT bHLH-LZ;Max bHLH-LZ (p21 isoform) (human?;, UniProt P01106;P61244 ;, |)
Experiment: EMSA

B1: CACGTG E-box probe (dsDNA)
DNA 1: GCGCGGGCACGTGGGCCGGGG
DNA 2: CCCCGGCCCACGTGCCCGCGC
binding result: binds
